Test: Encapsulation of cationic peptide IB510 in liposomes (extrusion, BioGel column, LSC/HPLC)
Assay type: physicochemical
Conditions: ATTA8-DSPE versus PEG-PE
Description: Lipid films (total of 100 mg of lipid) were prepared by dissolving appropriate quantities of individual lipids in 200 to 500 μL of chloroform, mixing the lipids, then removing the chloroform under high vacuum. Specifically, prepared lipid films were sphingomyelin/cholesterol/PEG-PE (50/45/5 molar ratios; prepared from 53.2 mg sphingomyelin, 26 mg cholesterol and 20 mg PEG-PE) and sphingomyelin/cholesterol/ATTA8-DSPE (50/45/5 molar ratios; prepared from 53.2 mg sphingomyelin, 26 mg cholesterol and 20 mg ATTA8-DSPE) and contained 1 μCi of 3H-cholesterylhexadecylether as a radiolabelled tracer. […] 5 μl were removed for phosphate assay to quantify the phospholipid and for liquid scintillation counting (LSC). […]
Aliquots of 200-400 μL of the large unilamellar vesicles containing IB510 were passed over a 20 cm×1 cm BioGel A-15 m (50-100 mesh) column pre-equilibrated in 150 mM NaCl and 20 mM Hepes (pH 7.5). […] The concentrations of liposomes and peptide were quantified by LSC and HPLC, respectively. Encapsulation efficiency was calculated from the post-column peptide/lipid ratio divided by the precolumn peptide/lipid ratio. […]

| Substance | encapsulation efficiency (comparison in words) |
| --- | --- |
| N-(ω-azido-octa-(14′-amino-3′,6′,9′,12′-tetraoxatetradecanoyl))-1,2-distearoyl-sn-glycero-3-phosphoethanolamine [ATTA8-DSPE] | superior to PEG-PE |
| Octa-(14-amino-3,6,9,12-tetraoxatetradecanoic acid) [ATTA8] | superior to PEG |
